Reference: the supplement of paper PMC10567573
± gives the standard deviation.

Test: protein stability index of a GFP-peptide fusion (GPS, HEK-293T) (PSI 1-6); higher = more stable
[1] = treatment: DMSO, c terminus: a fixed tail appended
[2] = treatment: MLN4924 1 uM, 8 h, c terminus: a fixed tail appended
[3] = treatment: DMSO, c terminus: native
[4] = treatment: MLN4924 1 uM, 8 h, c terminus: native
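Note: 24-mer peptide tiles fused after GFP, lentivirally expressed, FACS-sorted into six equal bins by GFP/DsRed ratio, decoded by Illumina sequencing, PSI is the read-weighted mean bin number.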

Sequence	protein stability index [1]	protein stability index [2]	protein stability index [3]	protein stability index [4]
VYSCAFSPDSSMLCSVGASKAVFL [WSB1]	2.8 ± 0.5	2.86 ± 0.49		
WAGFMVLLMIPWGSAAKLVCYFTN [CHIT1]	2.69 ± 0.069	2.11 ± 0.13		
WFESVLEPGYIDSEIGTSDQIVPE [TRIB1]	4.44 ± 0.2	4.09 ± 0.18		
WGCSCCPPETKHQALSGTPKKGPA [TSPAN10]	4.13 ± 0.41	4.44 ± 0.26		
WKSHLKKVQKPLLQAPFLPPKAPP [RHOBTB1]	3.21 ± 0.17	3.37 ± 0.34		
WLLLLTRGLVGVGEASYSTIAPTL [SPNS1]	2.67 ± 0.44	2.83 ± 0.32		
WNVLMWTSLFLGNGVLLCFYSQEW [SOAT1]	2.99 ± 0.93	2.7 ± 0.38		
WPPSFLSEFRALQFSLMLCAFVGA [SPNS1]	3.23 ± 0.53	2.85 ± 0.64		
WQLYYSKKLLDSWFTSTQEKKHK [JAGN1]			2.28 ± 0.49	2.7 ± 0.29
WRWTGFNFGFDLLVTYTNRYIIFK [GMCL1]	2.63 ± 0.58	3.02 ± 0.45		
WTALHFAAQNGDESSTRLLLEKNA [RIPK4]	3.4 ± 0.08	3.28 ± 0.33		
WVFHHYVSTFLSGVMLTWPDGLMY [TMEM120A]	3.14 ± 0.17	3.11 ± 0.24		
WYSRLQACQWGGNFLAFSVRRVS			3.17 ± 0.58	2.15 ± 0.83
YDIEVNTRRAQADLAYQLQVAKTK [FLOT1]	4.35 ± 0.18	4.33 ± 0.19		
YDPKTNQWSSDVAPTSTCRTSVGV [KLHL20]	2.86 ± 0.44	3.04 ± 0.19		
YEGGHIKGAVNLHMEEEVEDFLLK [CDC25A]	4.6 ± 0.42	4.51 ± 0.076		
YGRSWESYSSCGDFHYCDREHVCR [RBMY1A1]	2.65 ± 0.72	2.66 ± 0.35		
YISPELCEGKPYNQKSDIWALGCV [NEK8]	2.19 ± 0.41	2.01 ± 0.19		
YLRSKLCSLYENDCIFDKFECAWN [PPP2R2C]	2.81 ± 0.57	2.61 ± 0.66		
YNSEILEEAISVVMSGKMSVSKAQ [LCOR]	2.96 ± 0.17	3.03 ± 0.41		
YPCLEKPRIWSLAHTATASAVEGA [IRX6]	2.8 ± 0.41	2.98 ± 0.49		
YPTCGIGYPVSSAFAFQNTFPHSI [SASS6]	2.66 ± 0.55	2.49 ± 0.41		
YQELLGLSFEQMTDAHVWNKSVTL [NLN]	2.37 ± 0.093	2.3 ± 0.28		
YSLFVGLFLFGYKFSGLYILSFTV [SLC35F2]	3.24 ± 0.39	3.07 ± 0.39		
YSLRILIGDPPHHDHHDEFCLMP [BEX5]			2.62 ± 0.4	2.03 ± 0.35
YSNTDANILFYVVGLRNTLTRIRK [GLT8D2]	2.3 ± 0.61	2.45 ± 0.3		
YTGEIKISENLDYEETGFYEIEIQ [PCDHGA10]	2.97 ± 0.18	2.87 ± 0.46		
YTSELYPTVIRNVGLGTCSMFSRV [SLC22A15]	2.13 ± 0.82	1.77 ± 0.12		
YVDVVFANRPDPNTPMEETVRAMT [KCNAB2]	2.66 ± 0.34	3.09 ± 0.7		
YYTTPIYRFRMKCHLCVNYIEMQT [YJU2B]	2.73 ± 0.43	2.51 ± 0.64		
